Measurements published in paper PMC4030953, “Pyranose Dehydrogenase from Agaricus campestris and Agaricus xanthoderma: Characterization and Applications in Carbohydrate Conversions” (Biomolecules, 2013).

B1: AcPDH (Agaricus campestris) (protein)
chain: AITYQHPDDLPGDVDYDFIVAGGGTAGLVVASRLGENSKWNVLVIEAGPSNKDVFATRVPGLAETLPTSHIDWNYTTVPQQALGGRSLNYSRAMILGGCSTHNGMVYTRGSKDDWNKWADVTGNRDLSWDSILPIMKKVEKFSEDFSDQSVEGHIDPSVHGNDGKLSVVASYTNVSFNDLLLETTKELVDEFPFKLDMNDGNPVGLTWNQYTIDHNAERSSSATAYLESTGDNVHVLLNTRVTRIVPTGKTNFRTVEFAVDAGGPRKQLTAKKEVILSGGFIASPQILMNSGIGDQEALKAVGVDTLVNNPSVGKNVSDQAATLVLFDTTLPNTDFDVDAAIVEWNNSHAGPLATGAPLNHLIWVRLSDDKLSGSDPSSGKDSPHIEFQFSKISHRIPPANVPNQVALPSQDSIGVVIQFSVVNLNSISRGSVSLNDNNPFSHPLIDLNMLGEEQDIAILREGVHSARRMLSSEAFKPFVNGSVHPPANITSDEDLDAFLHTTTKSYLHGVGTLSMSPQNASWGVVDPDFRVKGTTGLRVVDASVIPSVPAGHTQTPVYAFAEYASIVIAKSYN
B2: AxPDH (Agaricus xanthodermus) (protein)
chain: AITYQHPDDLPSNVNYDFIVAGGGTAGLVVASRLSENSDWNILVIEAGPSNKDTPETRVPGLADSLPGSRTDWNYTTIPQDALGGRSLNYSRAKVLGGCSTHNGMVYTRGSEDDWNYWAEVTGDQALSWDSVLPIMKKAEKFSQDFSDQSVDGHIDPAVHGRDGLLSVVASYTNVSFNDLLLQTTKELSDEFPFKLDLNDGKPHELAWTQYTIDHNAERSSSATSYLETTGDNVHVLVNTHVTRIVSAGNGTNFRSVEFAVDSNSPKKVLQAKKELILSAGVIASPQVLMNSGIGGREELQAIGVDTLIDNPSVGKNLSDQAATLLMFDTTLPNTDYDVAAALTEWDKSRSGPMAHGARLNHLTWVRLPDDKLNGSDPSSGKDSPHIEFQFRQISHQLPPADVPNQVQLPDPDSIGVVLQFSVVNLYSISPGSVILNDNDPFANPMIDLNMFGDQKDIAILREGVRSARRMFSSPAFKDVINGTVYPPADVTSDEDLDAFLRTSAESYWHGVGTLSMSPQNASWGVVNPDFRVKGTSGLRVVDASVIPRAPAGHTQVPVYTFAEHASVLIAASYH

Legend:
Experiment in all cases: spectrophotometric electron acceptor reduction
Conditions in all cases: apparent, 25 mM D-glucose, pH 4, 30 °C
[1] = substrate: O=C1C=CC(=O)C=C1; assay type: biochemical, Agaricus campestris
Source text: (§1) spectrophotometric electron acceptor reduction on AcPDH

[2] = substrate: O=C1C(Cl)=CC(=Nc2ccc(O)cc2)C=C1Cl; assay type: biochemical, Agaricus campestris
Source text: as §1

[3] = substrate: O=C1C=CC(=O)C=C1; assay type: biochemical, Agaricus xanthodermus
Source text: (§2) spectrophotometric electron acceptor reduction on AxPDH

[4] = substrate: O=C1C(Cl)=CC(=Nc2ccc(O)cc2)C=C1Cl; assay type: biochemical, Agaricus xanthodermus
Source text: as §2

Row | Protein | Km [1] [µM] | kcat [1] [s⁻¹] | kcat/Km [1] [M⁻¹ s⁻¹] | Km [2] [µM] | kcat [2] [s⁻¹] | kcat/Km [2] [M⁻¹ s⁻¹] | Km [3] [µM] | kcat [3] [s⁻¹] | kcat/Km [3] [M⁻¹ s⁻¹] | Km [4] [µM] | kcat [4] [s⁻¹] | kcat/Km [4] [M⁻¹ s⁻¹]
1 | B1 | 120 ± 10 | 34.8 ± 1.02 | 303000 | 110 ± 0 | 10.6 ± 0.57 | 96000 |  |  |  |  |  | 
2 | B2 |  |  |  |  |  |  | 3250 ± 510 | 12.9 ± 1.56 | 4000 | 90 ± 10 | 7.65 ± 0.66 | 85000
